Patent publication US20140011978A1 (EPFL TTO, published 2014)

Legend:
PDGF-BB = target: T1, PDGF-BB (UniProt P01127 82-190); experiment: ELISA: growth factor coated, Fg fragment in solution, A450 (methods analogous to Example 3)
T1 construct: The name implies a homodimer of B chains
Protocol: (§1) ELISA plates were coated with cytokines or BSA and further incubated with TNC III1-5 to analyze binding of TNC III1-5 to a wide variety of cytokines. […] A large amount of heparin (4 μM) impaired binding of TNC III1-5 to these cytokines. Results are depicted in FIG. 3. Method: 50 nM of cytokine was coated for (1 hr, 37° C.). After blocking with 2% BSA (1 hr, RT). 100 nM TNC III1-5 was applied in PBST (0.05% tween, 0.1% bovine serum albumin (BSA)) (1 hr, RT). TNC III1-5 was detected with horseradish peroxidase (HRP)-anti-HIS in PBST (1 hr, RT) and developed with 3,3′,5,5′-tetramethylbenzidine (TMB), a soluble colorimetric HRP […]. Addition of sulfuric acid stop solution changes the color to yellow, enabling accurate measurement of the intensity at 450 nm using a spectrophotometer or plate reader. […] Heparin (4 μM) was added to TNC III1-5 to test the effect of blocking the heparin binding site of TNC III1-5, which has been defined as domain TNC III5 (Weber, Zimmermann, et al., 1995).
(§2) ELISA plates were coated with cytokines or BSA and further incubated with Fg β15-66 to analyze binding of […] to a wide variety of cytokines. […] Results are depicted in FIG. 4. Method: The methods were analogous to those used in Example 3.

PDGF-AB = target: T2, PDGF-AB (UniProt P04085 87-211; P01127 82-190, limits assumed); experiment: ELISA, cytokine coated, Fg β15-66 in solution (methods as Example 3)
T2 construct: The name implies a heterodimer of A and B chains
T2 sequence (P01127 82-190 limits assumed, chain 2 of 2, other chains not shown): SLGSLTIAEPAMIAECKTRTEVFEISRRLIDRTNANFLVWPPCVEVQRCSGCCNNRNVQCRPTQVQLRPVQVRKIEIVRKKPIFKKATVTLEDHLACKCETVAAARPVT
Protocol: as §1, §2

FGF-5 = target: T3, FGF-5 (UniProt P12034 21-268, limits assumed); experiment: as above
T3 sequence (looked up): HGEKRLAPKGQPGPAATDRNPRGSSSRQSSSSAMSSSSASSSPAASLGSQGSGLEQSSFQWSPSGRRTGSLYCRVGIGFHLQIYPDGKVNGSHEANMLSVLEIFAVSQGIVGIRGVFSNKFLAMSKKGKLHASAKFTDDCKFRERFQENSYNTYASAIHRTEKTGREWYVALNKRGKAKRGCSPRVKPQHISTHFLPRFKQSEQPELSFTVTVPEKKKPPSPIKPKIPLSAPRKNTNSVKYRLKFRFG
Protocol: as §1, §2

BMP-2/7 = target: T4, BMP-2/7 (UniProt P12643 283-396; P18075 293-431); experiment: as above
T4 construct: The name implies a BMP-2/BMP-7 heterodimer
T4 sequence (P12643 283-396, chain 1 of 2): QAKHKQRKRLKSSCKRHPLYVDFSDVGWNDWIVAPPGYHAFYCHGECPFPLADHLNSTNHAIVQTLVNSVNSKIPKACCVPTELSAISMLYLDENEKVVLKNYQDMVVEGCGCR
T4 sequence (P18075 293-431, chain 2 of 2): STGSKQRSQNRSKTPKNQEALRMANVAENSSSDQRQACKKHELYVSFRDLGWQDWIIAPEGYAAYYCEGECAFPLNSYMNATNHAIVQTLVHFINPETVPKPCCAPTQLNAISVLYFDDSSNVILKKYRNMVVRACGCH
Protocol: as §1, §2

BSA = target: T5, BSA (bovine, UniProt P02769); experiment: ELISA: BSA coated as control, Fg fragment in solution, A450 (methods analogous to Example 3)
T5 construct: negative control; also called bovine serum albumin
T5 sequence (P02769 25-607 limits assumed): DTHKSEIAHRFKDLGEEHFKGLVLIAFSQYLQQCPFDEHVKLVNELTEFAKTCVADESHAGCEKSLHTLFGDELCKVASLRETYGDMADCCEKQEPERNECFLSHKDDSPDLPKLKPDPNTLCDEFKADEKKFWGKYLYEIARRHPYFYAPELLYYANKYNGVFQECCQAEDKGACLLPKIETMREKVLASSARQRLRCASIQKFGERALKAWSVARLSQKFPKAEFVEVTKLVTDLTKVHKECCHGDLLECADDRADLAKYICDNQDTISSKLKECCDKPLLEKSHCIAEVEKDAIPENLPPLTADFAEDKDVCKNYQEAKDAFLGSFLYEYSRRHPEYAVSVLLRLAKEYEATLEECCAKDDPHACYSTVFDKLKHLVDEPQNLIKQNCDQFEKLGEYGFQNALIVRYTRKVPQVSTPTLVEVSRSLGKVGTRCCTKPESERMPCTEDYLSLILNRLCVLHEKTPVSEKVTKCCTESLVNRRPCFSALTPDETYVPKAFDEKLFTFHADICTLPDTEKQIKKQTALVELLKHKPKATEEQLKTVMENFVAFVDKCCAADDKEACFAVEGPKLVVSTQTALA
Protocol: as §1, §2

TGF-β1 = TGF-β1 (UniProt P01137 279-390); experiment: SPR, Fg β15-66 on the chip, cytokine injected (methods as Example 5), Langmuir fit
Chain of TGF-β1 (P01137 279-390 limits assumed): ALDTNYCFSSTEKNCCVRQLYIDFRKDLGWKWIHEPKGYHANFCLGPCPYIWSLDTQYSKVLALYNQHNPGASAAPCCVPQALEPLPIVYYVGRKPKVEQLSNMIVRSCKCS
Protocol: (§3) Surface plasmon resonance (SPR) was done to quantify the affinity of specific cytokines to TNC III1-5. […] Method: Surface plasmon resonance chips were functionalized with TNC III1-5 or BSA and cytokines were injected over the chips at different concentrations. The chips contained gold with free carboxyl groups that were activated to bind TNC III1-5 in one channel and BSA as a reference protein in another channel. The specific response of a cytokine to TNC III1-5 (in RU) was obtained relative to the response to BSA. Results are depicted in FIG. 5.
(§4) Surface plasmon resonance (SPR) was done to quantify the affinity of specific cytokines to Fg β15-66. […] Method: The methods used above were analogous to those used in Example 5. Fits of the experimental data were made with Langmuir binding kinetics. Results are depicted in FIG. 6.

IGF-BP5 = IGF-BP5 (UniProt P24593 21-272); experiment: as above
Chain of IGF-BP5 (P24593 21-272 limits assumed): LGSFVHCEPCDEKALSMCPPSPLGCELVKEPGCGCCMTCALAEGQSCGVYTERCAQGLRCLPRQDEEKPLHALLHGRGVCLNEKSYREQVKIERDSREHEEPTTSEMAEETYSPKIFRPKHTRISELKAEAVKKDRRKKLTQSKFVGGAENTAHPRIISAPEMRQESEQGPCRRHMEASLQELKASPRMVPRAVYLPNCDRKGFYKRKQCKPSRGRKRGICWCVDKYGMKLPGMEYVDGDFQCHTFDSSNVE
Protocol: as §3, §4

FGF-2 = FGF-2 (UniProt P09038 135-288, limits assumed); experiment: as above
Chain of FGF-2 (P09038 135-288 limits assumed): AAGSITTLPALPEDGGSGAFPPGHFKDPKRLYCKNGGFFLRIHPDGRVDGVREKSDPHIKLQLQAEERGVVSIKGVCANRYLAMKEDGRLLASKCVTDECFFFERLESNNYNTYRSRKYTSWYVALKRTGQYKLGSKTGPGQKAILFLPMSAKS
Protocol: as §3, §4

PlGF-2 = target: T6, PlGF-2 (UniProt P49763-3 19-170); experiment: as above
T6 sequence (looked up): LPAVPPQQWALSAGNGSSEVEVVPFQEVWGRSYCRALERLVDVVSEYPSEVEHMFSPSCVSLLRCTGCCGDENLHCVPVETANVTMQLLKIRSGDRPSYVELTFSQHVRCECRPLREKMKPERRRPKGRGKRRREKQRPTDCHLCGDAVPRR
Protocol: as §3, §4

T1 sequence (P01127 82-190 limits assumed): as the sequence (P01127 82-190 limits assumed, chain 2 of 2, other chains not shown) above

B1: Fg β15-66 (other)
chain: GSNQEQVSPLGHRPLDKKREEAPSLRPAPPPISGGGYRARPAKAAATQKKVERKAPDAGGCGHHHHHH
notes: Made as a GST fusion; GST was cleaved off; also called TG-Fg β15-66; fibrinogen β15-66 domain
binding result (PDGF-BB): binds | binding result (PDGF-AB): binds | binding result (FGF-5): binds | binding result (BMP-2/7): binds | binding result (BSA): no binding | Kd (TGF-β1): 56.5 nM | Kd (IGF-BP5): 19.6 nM | Kd (FGF-2): 53 nM | Kd (PlGF-2): 1.9 nM
